Data as given in publication PMC314469, “Protein Interaction Networks by Proteome Peptide Scanning” (PLoS Biology, 2004).
Values belong to the binder of their own block, whether it stands above or below them.

Tests used:
Experiment in all cases: SPOT array
[1] = target: T1, Boi1 SH3 (BOI1_YEAST), P38041
T1 chain: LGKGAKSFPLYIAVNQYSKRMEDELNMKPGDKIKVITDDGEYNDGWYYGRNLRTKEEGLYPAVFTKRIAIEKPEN

[2] = target: T2, Boi2 SH3 (BOI2_YEAST), P39969
T2 chain: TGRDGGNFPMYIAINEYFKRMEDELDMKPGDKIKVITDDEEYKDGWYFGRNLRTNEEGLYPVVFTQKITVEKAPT

[3] = target: T3, Myo5 SH3 (MYO5_YEAST), Q04439
T3 chain: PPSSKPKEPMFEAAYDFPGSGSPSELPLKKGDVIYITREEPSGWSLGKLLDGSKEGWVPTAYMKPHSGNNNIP

[4] = target: T4, Rvs167 SH3 (RV167_YEAST), P39743
T4 chain: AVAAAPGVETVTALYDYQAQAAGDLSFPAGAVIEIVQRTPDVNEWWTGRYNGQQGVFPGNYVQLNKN

[5] = target: Sho1 SH3 (SHO1_YEAST), P40073
Chain of Sho1 SH3 (SHO1_YEAST), P40073 (P40073 295-366): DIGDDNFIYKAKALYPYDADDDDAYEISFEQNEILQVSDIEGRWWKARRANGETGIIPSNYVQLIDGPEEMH

[6] = target: T5, Yfr024 SH3 (LSB3_YEAST), P43603
T5 chain: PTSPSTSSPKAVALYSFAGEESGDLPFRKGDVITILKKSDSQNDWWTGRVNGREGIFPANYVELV

[7] = target: T6, Yhr016c SH3 (YSC84_YEAST), P32793
T6 chain: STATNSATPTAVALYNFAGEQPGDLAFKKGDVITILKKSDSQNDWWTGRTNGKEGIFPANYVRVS

normalised SPOT signal, Boehringer light units (BLU); mean over the file's lines of this peptide [1]: 28.8
normalised SPOT signal, Boehringer light units (BLU); mean over the file's lines of this peptide [2]: 1.9
normalised SPOT signal, Boehringer light units (BLU); mean over the file's lines of this peptide [3]: 157
normalised SPOT signal, Boehringer light units (BLU); mean over the file's lines of this peptide [4]: 12.7
normalised SPOT signal, Boehringer light units (BLU); mean over the file's lines of this peptide [5]: 45.5
normalised SPOT signal, Boehringer light units (BLU); mean over the file's lines of this peptide [6]: -0
normalised SPOT signal, Boehringer light units (BLU); mean over the file's lines of this peptide [7]: 22.7
B1: YNL163C 601-614 (peptide)
chain: VLGPKYDPKSPEEH

normalised SPOT signal, Boehringer light units (BLU); mean over the file's lines of this peptide [1]: 170
normalised SPOT signal, Boehringer light units (BLU); mean over the file's lines of this peptide [2]: 0.8
normalised SPOT signal, Boehringer light units (BLU); mean over the file's lines of this peptide [3]: 57.4
normalised SPOT signal, Boehringer light units (BLU); mean over the file's lines of this peptide [4]: 9.9
normalised SPOT signal, Boehringer light units (BLU); mean over the file's lines of this peptide [5]: 25.7
normalised SPOT signal, Boehringer light units (BLU); mean over the file's lines of this peptide [6]: 43.6
normalised SPOT signal, Boehringer light units (BLU); mean over the file's lines of this peptide [7]: 49.9
B4: YMR239C 193-206 (peptide)
chain: VKATKWPPKLPEIQ

normalised SPOT signal, Boehringer light units (BLU); mean over the file's lines of this peptide [1]: 1040
normalised SPOT signal, Boehringer light units (BLU); mean over the file's lines of this peptide [2]: 19.1
normalised SPOT signal, Boehringer light units (BLU); mean over the file's lines of this peptide [3]: 476
normalised SPOT signal, Boehringer light units (BLU); mean over the file's lines of this peptide [4]: 75.4
normalised SPOT signal, Boehringer light units (BLU); mean over the file's lines of this peptide [5]: 94
normalised SPOT signal, Boehringer light units (BLU); mean over the file's lines of this peptide [6]: 284
normalised SPOT signal, Boehringer light units (BLU); mean over the file's lines of this peptide [7]: 19.5
B5: YLR212C 354-367 (peptide)
chain: VNIGRRSPYLPLQP

normalised SPOT signal, Boehringer light units (BLU); mean over the file's lines of this peptide [1]: 0
normalised SPOT signal, Boehringer light units (BLU); mean over the file's lines of this peptide [2]: 19.8
normalised SPOT signal, Boehringer light units (BLU); mean over the file's lines of this peptide [3]: 54
normalised SPOT signal, Boehringer light units (BLU); mean over the file's lines of this peptide [4]: 32.9
normalised SPOT signal, Boehringer light units (BLU); mean over the file's lines of this peptide [5]: 36.1
normalised SPOT signal, Boehringer light units (BLU); mean over the file's lines of this peptide [6]: 0
normalised SPOT signal, Boehringer light units (BLU); mean over the file's lines of this peptide [7]: 6.3
B6: YOR151C 910-923 (peptide)
chain: VIIGKTTPISPDEE

normalised SPOT signal, Boehringer light units (BLU); mean over the file's lines of this peptide [1]: 151
normalised SPOT signal, Boehringer light units (BLU); mean over the file's lines of this peptide [2]: 108
normalised SPOT signal, Boehringer light units (BLU); mean over the file's lines of this peptide [3]: 213
normalised SPOT signal, Boehringer light units (BLU); mean over the file's lines of this peptide [4]: 267
normalised SPOT signal, Boehringer light units (BLU); mean over the file's lines of this peptide [5]: 51.5
normalised SPOT signal, Boehringer light units (BLU); mean over the file's lines of this peptide [6]: 666
normalised SPOT signal, Boehringer light units (BLU); mean over the file's lines of this peptide [7]: 128
B11: YPL059W 48-61 (peptide)
chain: VLFMKGTPEFPKSG

normalised SPOT signal, Boehringer light units (BLU); mean over the file's lines of this peptide [1]: 1300
normalised SPOT signal, Boehringer light units (BLU); mean over the file's lines of this peptide [2]: 8.9
normalised SPOT signal, Boehringer light units (BLU); mean over the file's lines of this peptide [3]: 534
normalised SPOT signal, Boehringer light units (BLU); mean over the file's lines of this peptide [4]: 71.6
normalised SPOT signal, Boehringer light units (BLU); mean over the file's lines of this peptide [5]: 71.6
normalised SPOT signal, Boehringer light units (BLU); mean over the file's lines of this peptide [6]: 782
normalised SPOT signal, Boehringer light units (BLU); mean over the file's lines of this peptide [7]: 32.9
B12: YPR104C 435-448 (peptide)
chain: VKKEKKPPKIPKKV

More lines, now with the values behind:

B2: YER093C 584-597 (peptide)
chain: VLKIKPLPYKPRGR
normalised SPOT signal, Boehringer light units (BLU); mean over the file's lines of this peptide [1]: 1590
normalised SPOT signal, Boehringer light units (BLU); mean over the file's lines of this peptide [2]: 34.8
normalised SPOT signal, Boehringer light units (BLU); mean over the file's lines of this peptide [3]: 647
normalised SPOT signal, Boehringer light units (BLU); mean over the file's lines of this peptide [4]: 25
normalised SPOT signal, Boehringer light units (BLU); mean over the file's lines of this peptide [5]: 3410
normalised SPOT signal, Boehringer light units (BLU); mean over the file's lines of this peptide [6]: 426
normalised SPOT signal, Boehringer light units (BLU); mean over the file's lines of this peptide [7]: 27.3

B3: YDR377W 34-47 (peptide)
chain: VHFYKSLPQGPAPA
normalised SPOT signal, Boehringer light units (BLU); mean over the file's lines of this peptide [1]: 49.8
normalised SPOT signal, Boehringer light units (BLU); mean over the file's lines of this peptide [2]: 44.6
normalised SPOT signal, Boehringer light units (BLU); mean over the file's lines of this peptide [3]: 510
normalised SPOT signal, Boehringer light units (BLU); mean over the file's lines of this peptide [4]: 25.6
normalised SPOT signal, Boehringer light units (BLU); mean over the file's lines of this peptide [5]: 5350
normalised SPOT signal, Boehringer light units (BLU); mean over the file's lines of this peptide [6]: 90.7
normalised SPOT signal, Boehringer light units (BLU); mean over the file's lines of this peptide [7]: 21.8

B7: YGL097W 70-83 (peptide)
chain: VKRPRLNPFLPRDE
normalised SPOT signal, Boehringer light units (BLU); mean over the file's lines of this peptide [1]: 135000
normalised SPOT signal, Boehringer light units (BLU); mean over the file's lines of this peptide [2]: 2400
normalised SPOT signal, Boehringer light units (BLU); mean over the file's lines of this peptide [3]: 1190
normalised SPOT signal, Boehringer light units (BLU); mean over the file's lines of this peptide [4]: 4070
normalised SPOT signal, Boehringer light units (BLU); mean over the file's lines of this peptide [5]: 119
normalised SPOT signal, Boehringer light units (BLU); mean over the file's lines of this peptide [6]: 2420
normalised SPOT signal, Boehringer light units (BLU); mean over the file's lines of this peptide [7]: 348

B8: YGL209W 201-214 (peptide)
chain: VNTPRSVPNSPNDG
normalised SPOT signal, Boehringer light units (BLU); mean over the file's lines of this peptide [1]: 28.6
normalised SPOT signal, Boehringer light units (BLU); mean over the file's lines of this peptide [2]: 28
normalised SPOT signal, Boehringer light units (BLU); mean over the file's lines of this peptide [3]: 65
normalised SPOT signal, Boehringer light units (BLU); mean over the file's lines of this peptide [4]: 59.3
normalised SPOT signal, Boehringer light units (BLU); mean over the file's lines of this peptide [5]: 47.4
normalised SPOT signal, Boehringer light units (BLU); mean over the file's lines of this peptide [6]: 662
normalised SPOT signal, Boehringer light units (BLU); mean over the file's lines of this peptide [7]: 208

B9: YCR030C 726-739 (peptide)
chain: VLTVKMSPSLPDEI
normalised SPOT signal, Boehringer light units (BLU); mean over the file's lines of this peptide [1]: 173
normalised SPOT signal, Boehringer light units (BLU); mean over the file's lines of this peptide [2]: 28.2
normalised SPOT signal, Boehringer light units (BLU); mean over the file's lines of this peptide [3]: 230
normalised SPOT signal, Boehringer light units (BLU); mean over the file's lines of this peptide [4]: 4.4
normalised SPOT signal, Boehringer light units (BLU); mean over the file's lines of this peptide [5]: 49.5
normalised SPOT signal, Boehringer light units (BLU); mean over the file's lines of this peptide [6]: 444
normalised SPOT signal, Boehringer light units (BLU); mean over the file's lines of this peptide [7]: 20.6

B10: YDR301W 1194-1207 (peptide)
chain: VHVLKYAPDEPNSL
normalised SPOT signal, Boehringer light units (BLU); mean over the file's lines of this peptide [1]: 104
normalised SPOT signal, Boehringer light units (BLU); mean over the file's lines of this peptide [2]: 29.5
normalised SPOT signal, Boehringer light units (BLU); mean over the file's lines of this peptide [3]: 191
normalised SPOT signal, Boehringer light units (BLU); mean over the file's lines of this peptide [4]: 34.4
normalised SPOT signal, Boehringer light units (BLU); mean over the file's lines of this peptide [5]: 19.6
normalised SPOT signal, Boehringer light units (BLU); mean over the file's lines of this peptide [6]: 3.3
normalised SPOT signal, Boehringer light units (BLU); mean over the file's lines of this peptide [7]: 25.5

B13: YCL055W 187-200 (peptide)
chain: VPIDKKSPFYPGLD
normalised SPOT signal, Boehringer light units (BLU); mean over the file's lines of this peptide [1]: 152
normalised SPOT signal, Boehringer light units (BLU); mean over the file's lines of this peptide [2]: 31.1
normalised SPOT signal, Boehringer light units (BLU); mean over the file's lines of this peptide [3]: 150
normalised SPOT signal, Boehringer light units (BLU); mean over the file's lines of this peptide [4]: 59.1
normalised SPOT signal, Boehringer light units (BLU); mean over the file's lines of this peptide [5]: 20.8
normalised SPOT signal, Boehringer light units (BLU); mean over the file's lines of this peptide [6]: 32.1
normalised SPOT signal, Boehringer light units (BLU); mean over the file's lines of this peptide [7]: 20.7
